# Assay results: PMC7555452, “Functional Characterization of a Putative RNA Demethylase ALKBH6 in Arabidopsis Growth and Abiotic Stress Responses”
# T1: ALKBH6 (Arabidopsis thaliana, UniProt Q9SUP1 1-241)
# T1 sequence: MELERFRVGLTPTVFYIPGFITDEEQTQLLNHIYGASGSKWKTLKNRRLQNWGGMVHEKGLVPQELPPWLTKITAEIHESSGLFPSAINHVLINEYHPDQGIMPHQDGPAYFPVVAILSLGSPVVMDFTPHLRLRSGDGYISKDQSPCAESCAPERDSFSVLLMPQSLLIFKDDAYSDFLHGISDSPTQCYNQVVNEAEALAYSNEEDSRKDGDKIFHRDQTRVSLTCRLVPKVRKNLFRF
# Biological target: T1, ALKBH6
# Experiment: EMSA; 3, 5, 7 uM protein; 10 mM Tris-HCl pH 8.0, 150 mM NaCl, 1.0 mM EDTA, 10% glycerol; 5.0 pmol RNA in 20 uL, on ice 30 min; 6% native PAGE, 0.25x TBE, 4 °C
# Conditions: protein: recombinant; tags: His-TF (pCold TF) fusion, cleaved with HRV 3C protease; Ni-NTA purified; label: 5'-fluorescein
row,Binder,binding result
1,"GAAUCCGAACUAGUUCU (ssRNA, m6A at position 9) [SOS3 RNA m6A]",binds
2,GAAUCCGAACUAGUUCU (ssRNA) [SOS3 RNA unmodified],binds
3,"CGUAGGCUACAGAGAAGCCUU (ssRNA, m6A at position 11) [MAT2A RNA m6A]",binds
4,CGUAGGCUACAGAGAAGCCUU (ssRNA) [MAT2A RNA unmodified],binds
5,"GGACGCUUCUUCGACCU (ssRNA, m5C at position 9) [m5C motif RNA m5C]",binds
6,GGACGCUUCUUCGACCU (ssRNA) [m5C motif RNA unmodified],binds
